Assay results from US20040077031.

Tested on: MAS (methionine-alanine-serine) trimeric peptide

recombinant human methionine aminopeptidase type 1 (MetAP1) with N-terminal histidine tag
enzymatic cleavage of peptide substrate: showed enzymatic activity in cleaving a tripeptide MAS substrate
